Laboratory results taken from patent US20240124590A1 (ULTRAHUMAN EIGHT, published 2024).
Numbering of substitutions follows the chain as printed. Like-named read-outs stand apart in the source and are kept apart here. Each block holds one binder with its values, some of them ahead of it.

How the values were obtained:
[1] = target: T1, human PD1 human Fc tagged recombinant protein (human, UniProt Q15116 25-170, limits assumed); experiment: direct ELISA, IgG1null on coated PD1-Fc
T1 construct: also called huPD1-Fc; huPD-1-Fc; not shown: human Fc tag
Description: (§1) Binding and cross-reactivity of the lead panel to the recombinant proteins was initially assessed by binding ELISA. The human PD1 human Fc tagged recombinant protein and the cynomolgus monkey PD1 human Fc tagged recombinant protein were coated to the surface of MaxiSorp™ flat-bottom 96 well plate at 1 μg/ml. […] The Fabs were detected using mouse anti-c-myc antibody followed by donkey anti-mouse IgG conjugated to horseradish peroxidase. The IgGs were detected using the mouse anti-human IgG conjugated to horseradish peroxidase. Binding signals were visualized with 3,3′,5,5′-Tetrannethylbenzidine Substrate Solution (TMB) and the absorbance measured at 450 nm.
(§2) The purified IgGs described above were then tested for binding to human and cyno PD1-Fc in direct titration ELISA format. […] As the ELISA EC50 values for directly binding IgGs are strongly influenced by avidity, rather than true 1:1 binding affinity, we then proceeded to perform higher-sensitivity, solution-phase epitope competition and Biacore binding affinity determinations, as outlined below.

[2] = target: T2, cynomolgus monkey PD1 human Fc tagged recombinant protein (cynomolgus monkey, UniProt Q15116 25-170 (human entry), limits assumed); experiment: direct ELISA, IgG1null on coated PD1-Fc
T2 construct: also called cyPD1-Fc; cyPD-1-Fc; not shown: human Fc tag
T2 chain: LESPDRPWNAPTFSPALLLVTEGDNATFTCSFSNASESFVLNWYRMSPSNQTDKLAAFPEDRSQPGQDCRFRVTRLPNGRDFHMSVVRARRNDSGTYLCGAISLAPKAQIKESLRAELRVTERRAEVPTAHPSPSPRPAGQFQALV
Description: as §1, §2

[3] = target: human PD1 expressed on cells (human, UniProt Q15116 25-288); experiment: cell-based or functional assay
[4] = target: T3, cynomolgus monkey PD1 His tag (monomeric) (cynomolgus monkey, UniProt Q15116 25-170 (human entry), limits assumed); experiment: SPR (Biacore), IgG captured, monomeric PD1-His analyte
T3 construct: Soluble monomeric analyte; whole entry named; also called monomeric cyno PD1; not shown: His tag
T3 chain: T2 chain
Description: (§3) Affinity (KD) of purified IgGs was determined via SPR with antigen in-solution on a Biacore 3000 (GE). A mouse anti-human antibody (CH1 specific) was immobilized on a CM5 Sensor Chip to a level of 2000 RU in acetate buffer at pH 4.5 using amine coupling following the Wizard instructions for two channels. One channel was used for background signal correction. The standard running buffer HBS-EP pH 7.4 was used. Regeneration was performed with a single injection of 10 μl of 10 mM Glycine at pH 1.5 at 20 μl/minute. IgG samples were injected for 2 minutes at 50 nM at 30 μl/min followed by and off-rate of 60 seconds. […] The obtained sensorgrams were analysed using the Biacore 3000 evaluation (BIAevaluation) software. The KD was calculated by simultaneous fitting of the association and dissociation phases to a 1:1 Langmuir binding model.
(§4) Biacore analyses of binding affinity was performed for all IgGs to solution-phase, monomeric human and cyno PD1 proteins.

[5] = target: T4, human PD1 His tagged (monomeric) (human, UniProt Q15116 25-170, limits assumed); experiment: as above
T4 construct: Soluble monomeric analyte; whole entry named; also called monomeric human PD1; not shown: His tag
Description: as §3, §4

[6] = target: T5, recombinant ectodomain of human FZD5 (human, UniProt Q13467 27-167, limits assumed); experiment: direct ELISA
T5 construct: whole entry named
T5 sequence: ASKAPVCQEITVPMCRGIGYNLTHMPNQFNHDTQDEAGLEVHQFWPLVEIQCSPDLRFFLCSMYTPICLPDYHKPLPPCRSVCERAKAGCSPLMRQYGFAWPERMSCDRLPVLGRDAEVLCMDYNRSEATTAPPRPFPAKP

[7] = target: T1, human PD1 human Fc tagged recombinant …; experiment: direct ELISA, IgG1null on coated PD1-Fc; remark: listed apart in the source
Description: as §1, §2

[8] = target: T2, cynomolgus monkey PD1 human Fc tagged …; experiment: direct ELISA, IgG1null on coated PD1-Fc
Description: as §1, §2

Chain of human PD1 expressed on cells (Q15116 25-288 limits assumed): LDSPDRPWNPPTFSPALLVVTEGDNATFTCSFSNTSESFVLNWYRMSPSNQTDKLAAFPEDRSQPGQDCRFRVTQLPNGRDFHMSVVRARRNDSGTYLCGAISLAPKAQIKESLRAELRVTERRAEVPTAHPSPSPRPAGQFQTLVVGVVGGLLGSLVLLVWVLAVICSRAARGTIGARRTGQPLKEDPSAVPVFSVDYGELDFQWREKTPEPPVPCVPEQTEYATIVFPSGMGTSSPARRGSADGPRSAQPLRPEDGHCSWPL
T4 sequence (Q15116 25-170 limits assumed): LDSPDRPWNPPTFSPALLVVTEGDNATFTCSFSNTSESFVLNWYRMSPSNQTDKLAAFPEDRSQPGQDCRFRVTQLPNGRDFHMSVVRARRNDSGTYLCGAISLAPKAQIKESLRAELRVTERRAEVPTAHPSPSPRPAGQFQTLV
T1 sequence (Q15116 25-170 limits assumed): as above

EC50 [1]: 0.134 nM
EC50 [2]: 0.0771 nM
EC50 (ng/ml), IgG1null blockade of human PD1/PD-L1 [3]: 127 ng/mL
Kd [4]: 3.4 nM
koff [4]: 0.00052 s⁻¹
kon [4]: 150000 M⁻¹ s⁻¹
Kd [5]: 1.47 nM
koff [5]: 0.00028 s⁻¹
kon [5]: 190000 M⁻¹ s⁻¹
binding result [6]: no binding
B1: IgG1-08 (antibody, V domains shown)
VH: EVQLVESGGGLVQPGGSLRLSCAASGFTFSSYLMSWVRQAPGKGLEWVATISGGGSEKYYVDSVKGRFTISRDNAKNSLYLQMNSLRAEDTAVYYCARQLYGFDYWGQGTLVTVSS
VL: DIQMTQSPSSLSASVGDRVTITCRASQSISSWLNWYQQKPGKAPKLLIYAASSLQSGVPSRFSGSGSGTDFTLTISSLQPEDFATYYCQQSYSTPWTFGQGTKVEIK
notes: Designer; human IgG1null + Ckappa; also called Antibody IgG1-08; MAB08

EC50 (ng/ml), IgG1null blockade of human PD1/PD-L1 [3]: 224 ng/mL
EC50 [7]: 0.065 nM
EC50 [8]: 0.104 nM
Kd [4]: 4.9 nM
koff [4]: 0.00062 s⁻¹
kon [4]: 130000 M⁻¹ s⁻¹
Kd [5]: 1.3 nM
koff [5]: 0.00025 s⁻¹
kon [5]: 200000 M⁻¹ s⁻¹
binding result [6]: no binding
B2: IgG1-06D02 (antibody, V domains shown)
VH: B1 VH with K58T
VL: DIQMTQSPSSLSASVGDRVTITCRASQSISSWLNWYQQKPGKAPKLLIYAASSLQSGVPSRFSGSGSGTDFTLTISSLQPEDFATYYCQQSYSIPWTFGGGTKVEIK
notes: Library-derived; human IgG1null + Ckappa; also called Clone 06D02

EC50 [1]: 0.121 nM
EC50 [2]: 0.135 nM
EC50 (ng/ml), IgG1null blockade of human PD1/PD-L1 [3]: 156 ng/mL
Kd [4]: 2.8 nM
koff [4]: 0.00033 s⁻¹
kon [4]: 120000 M⁻¹ s⁻¹
Kd [5]: 1.91 nM
koff [5]: 0.00029 s⁻¹
kon [5]: 150000 M⁻¹ s⁻¹
binding result [6]: no binding
B3: IgG1-05 (antibody, V domains shown)
VH: B1 VH with L100V, G102Y
VL: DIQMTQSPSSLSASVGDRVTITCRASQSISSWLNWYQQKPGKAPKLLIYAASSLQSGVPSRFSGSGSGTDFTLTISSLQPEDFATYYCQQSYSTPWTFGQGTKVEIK
notes: Designer; human IgG1null + Ckappa; also called Antibody IgG1-05
